Experimental findings from patent US20250236657A1 (TOSOH, published 2025) are described below.

Numbering of substitutions follows the chain as printed.

Assay [1] concerns the target T1, AAV2 H271F (adeno-associated virus serotype 2 (AAV2), UniProt P03135 1-735).
T1 construct: Recombinant AAV2 vector particles in filtered cell lysate
As to the kind of experiment: affinity HPLC on AVR11a column, pH gradient 6.0 to 2.0; no elution peak, not adsorbed and passed through.

The target of assay [2] is T2, AAV2 H271T (adeno-associated virus serotype 2 (AAV2), UniProt P03135 1-735).
T2 construct: Recombinant AAV2 vector particles in filtered cell lysate
Described as above.

For assay [3], the target named is T3, AAV2 D529A (adeno-associated virus serotype 2 (AAV2), UniProt P03135 1-735).
T3 construct: Recombinant AAV2 vector particles in filtered cell lysate
The description is as above.

For assay [4], the target named is T4, AAV2 H271Q (adeno-associated virus serotype 2 (AAV2), UniProt P03135 1-735).
T4 construct: Recombinant AAV2 vector particles in filtered cell lysate
The description is as above.

For assay [5], the target named is T5, AAV2 G383A (adeno-associated virus serotype 2 (AAV2), UniProt P03135 1-735).
T5 construct: Recombinant AAV2 vector particles in filtered cell lysate
The assay is described as above.

The target of assay [6] is T6, AAV2 H271A (adeno-associated virus serotype 2 (AAV2), UniProt P03135 1-735).
T6 construct: Recombinant AAV2 vector particles in filtered cell lysate
The description is as above.

Assay [7] concerns the target T7, AAV2 S384A (adeno-associated virus serotype 2 (AAV2), UniProt P03135 1-735).
T7 construct: Recombinant AAV2 vector particles in filtered cell lysate
As to the kind of experiment: affinity HPLC, AVR11a immobilization gel, linear pH gradient 6.0 to 2.0, AAV2 peak top.

Assay [8] deals with T8, AAV2 S264A (adeno-associated virus serotype 2 (AAV2), UniProt P03135 1-735).
T8 construct: Recombinant AAV2 vector particles in filtered cell lysate
The description is as above.

Assay [9] concerns the target T9, AAV2 Q263A (adeno-associated virus serotype 2 (AAV2), UniProt P03135 1-735).
T9 construct: Recombinant AAV2 vector particles in filtered cell lysate
The assay is described as above.

Assay [10] addresses T10, AAV2 R471A (adeno-associated virus serotype 2 (AAV2), UniProt P03135 1-735).
T10 construct: Recombinant AAV2 vector particles in filtered cell lysate
The assay is described as above.

The target of assay [11] is T11, AAV2 D529E (adeno-associated virus serotype 2 (AAV2), UniProt P03135 1-735).
T11 construct: Recombinant AAV2 vector particles in filtered cell lysate
The description is as above.

In assay [12] the target is T12, AAV2 T503S (adeno-associated virus serotype 2 (AAV2), UniProt P03135 1-735).
T12 construct: Recombinant AAV2 vector particles in filtered cell lysate
The assay is described as above.

Assay [13] has as its target T13, AAV2 S267A (adeno-associated virus serotype 2 (AAV2), UniProt P03135 1-735).
T13 construct: Recombinant AAV2 vector particles in filtered cell lysate
The description is as above.

For assay [14], the target named is T14, AAV2 D528A (adeno-associated virus serotype 2 (AAV2), UniProt P03135 1-735).
T14 construct: Recombinant AAV2 vector particles in filtered cell lysate
Described as above.

Assay [15] has as its target T15, AAV2 (wild type), serotype 2 AAV with capsid region VP1 of SEQ ID NO: 99 (adeno-associated virus serotype 2 (AAV2), UniProt P03135 1-735).
T15 construct: Recombinant AAV2 vector particles (EGFP genome) in filtered cell lysate; the capsid is assembled from VP1, VP2 and VP3
The assay is described as above.

The target of assay [16] is T16, AAV2 Q385A (adeno-associated virus serotype 2 (AAV2), UniProt P03135 1-735).
T16 construct: Recombinant AAV2 vector particles in filtered cell lysate
The description is as above.

The target in assay [17] is T17, AAV2 S267T (adeno-associated virus serotype 2 (AAV2), UniProt P03135 1-735).
T17 construct: Recombinant AAV2 vector particles in filtered cell lysate
Described as above.

Assay [18] addresses T18, AAV2 N382A (adeno-associated virus serotype 2 (AAV2), UniProt P03135 1-735).
T18 construct: Recombinant AAV2 vector particles in filtered cell lysate
Described as above.

Assay [19] deals with T19, AAV2 E499A (adeno-associated virus serotype 2 (AAV2), UniProt P03135 1-735).
T19 construct: Recombinant AAV2 vector particles in filtered cell lysate
Described as above.

Assay [20] deals with T1, AAV2 H271F. As to the kind of experiment: affinity HPLC on AVR10s column, pH gradient 4.5 to 2.2; no elution peak, not adsorbed and passed through.
In assay [21] the target is T3, AAV2 D529A. Described as above.
Assay [22] concerns the target T5, AAV2 G383A. The description is as above.
Assay [23] addresses T7, AAV2 S384A. As to the kind of experiment: affinity HPLC, AVR10s immobilization gel, linear pH gradient 4.5 to 2.2, AAV2 peak top.
For assay [24], the target named is T8, AAV2 S264A. Described as above.
Assay [25] deals with T9, AAV2 Q263A. The assay is described as above.
Assay [26] addresses T10, AAV2 R471A. The assay is described as above.
Assay [27] addresses T11, AAV2 D529E. The description is as above.
Assay [28] deals with T12, AAV2 T503S. The description is as above.
Assay [29] concerns the target T13, AAV2 S267A. The description is as above.
For assay [30], the target named is T2, AAV2 H271T. Described as above.
Assay [31] deals with T14, AAV2 D528A. Described as above.
For assay [32], the target named is T15, AAV2 (wild type), serotype 2 AAV with …. Described as above.
In assay [33] the target is T16, AAV2 Q385A. The assay is described as above.
In assay [34] the target is T4, AAV2 H271Q. Described as above.
The target in assay [35] is T17, AAV2 S267T. The assay is described as above.
Assay [36] deals with T18, AAV2 N382A. Described as above.
In assay [37] the target is T6, AAV2 H271A. The description is as above.
In assay [38] the target is T19, AAV2 E499A. The assay is described as above.

B1: AAV-binding protein AVR11a with cysteine tag (SEQ ID NO: 100), immobilised as AVR11a immobilization gel (receptor)
chain: MGSAGESDQITLPKNEVQLNVYVLQEPPKGETSTYDWQLITHPRDYSGEMEGEHSQILKLSNLTPGLYEFKAVVEGQNAHSEGYVNVTVEPEPRKNRPPIAIVSPQFQEISLPTTSTVIDGSQSTDDDKIVQYHWEELKGPLREEKISEDTAILKLSKLVPGNYTFRLTVVDSDGATDSTTANLTVNKAVDHHHHHHCRNDTCG
modifications: immobilised on a TOYOPEARL carrier with iodoacetamide groups; cysteine tag sequence serving as immobilization tag at positions 220-226
notes: KIAA0319L PKD1 and PKD2 with 11 substitutions (AVR10s plus Ala330Val); also called AVR11a column
As for B1, the binding result with AAV2 H271F [1], with AAV2 H271T [2], with AAV2 D529A [3], with AAV2 H271Q [4], with AAV2 G383A [5] and with AAV2 H271A [6] was “no binding” each time. The “AVR11a column elution time” value with AAV2 S384A [7] was determined as 58.6 min; with AAV2 S264A [8] it was 59.6 min; in the assay with AAV2 Q263A [9] it was 60.2 min; with AAV2 R471A [10], 60.3 min; with AAV2 D529E [11] it was 54.5 min; with AAV2 T503S [12], 55.2 min. The “AVR11a column elution time” value in the assay with AAV2 S267A [13] is 59.4 min; in the assay with AAV2 D528A [14] it was 55.5 min; in [15], 59.8 min; with AAV2 Q385A [16], 57.7 min; in the assay with AAV2 S267T [17], 59.2 min; in the assay with AAV2 N382A [18] it was 53.5 min. The “AVR11a column elution time” value with AAV2 E499A [19] worked out at 59.3 min.

B2: AAV-binding protein AVR10s with cysteine tag (SEQ ID NO: 97), immobilised as AVR10s immobilization gel (receptor)
chain: B1 chain with V21A
modifications: immobilised on a TOYOPEARL carrier with iodoacetamide groups; cysteine tag sequence serving as immobilization tag at positions 220-226
notes: purified on Ni Sepharose and coupled to the carrier; also called AVR10s column
B2: the binding result with AAV2 H271F [20], with AAV2 D529A [21] and in the assay with AAV2 G383A [22] was “no binding” each time. Besides, the “AVR10s column elution time” value with AAV2 S384A [23] turned out to be 52.1 min; in the assay with AAV2 S264A [24], 53.7 min; in the assay with AAV2 Q263A [25], 54.4 min; in the assay with AAV2 R471A [26] it was 53.4 min; with AAV2 D529E [27], 47 min; with AAV2 T503S [28] it was 48 min. Moreover, the “AVR10s column elution time” value with AAV2 S267A [29] came to 52.9 min; with AAV2 H271T [30], 42.6 min; with AAV2 D528A [31], 47.5 min; in assay [32], 54.4 min; with AAV2 Q385A [33], 50.9 min; with AAV2 H271Q [34] it was 46.4 min. Also, the “AVR10s column elution time” value with AAV2 S267T [35] amounted to 54.2 min; with AAV2 N382A [36], 46.4 min; with AAV2 H271A [37], 46.7 min; with AAV2 E499A [38] it was 53.1 min.
